Experimental data taken from the nanobody polyreactivity screen of Harvey et al. (2022).

Experiment: yeast display, Sf9 membrane polyspecificity reagent, FACS + sequencing; frameworks hold sequencing errors
Summary of the method: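 Using colony PCR, genes from sorted yeast display clones were amplified, then sequenced on MiSeq at 2 × 250 and filtered by CDR length. The clones had been stained with 10% biotinylated, detergent-solubilized Sf9 membrane reagent for 1 hour at 4 °C and sorted by FACS into low and high (top ~1%) gates on anti-HA and streptavidin fluorescence. Polyreactivity labels come from the gate of origin.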

Question: With “QVQLVESGGGLVQAGGRLRLSCAASGFIFTDNGMGWYRQAPGKERELVAAINSDGSTYYADSVKGRFTISRDNAKNTVYLQMNSLKPEATAVYYCAVDGSITEIYLPGYGYGYWGQGTQVTVSS” as the sequence, how does the “polyreactivity (PSR sort gate)” value read?
Answer: The value was “low polyreactivity”.

Question: With “QVQLVESGGGLVQAGGSLRLSCAASGSTFRFYAMGWYRQAPGKERELVAAITRSGGGTTYYADSVKGRFTISRDNAKNTVYLQMNSLKPEDTAVYYCAAYLSSLGRKYYYWGQGTQVTVSS” as the sequence, how does the “polyreactivity (PSR sort gate)” value read?
Answer: Its value is “high polyreactivity”.

Question: For “QVQLVESGGGLVQAGGSLRLSCADSGFTFYTYTMGWYRPAPGKERELVAVISRSGGSTYYADSVKGRFTISRDNAKNTVYLQMNSVKPEDTAVYYCNAGYWRFIDSYDYWGQGTQVTVSS”, which “polyreactivity (PSR sort gate)” value is on record?
Answer: The value was “high polyreactivity”.

Question: With “QVQLVESGGGLVQAGGSLRLSCAASGLIFYRYTMGWYRQAPGKERELVAAITRSGSTYYADSVKGRFTISRDNAKNTVYLQMNSLKPEDTAVYYCAADVTLYYRGRRYYYWGQGTQVTVSS” as the sequence, how does the “polyreactivity (PSR sort gate)” value read?
Answer: Its value is “high polyreactivity”.

Question: For “QVHLVESGGGLVQAGGSLRLSCAASGSTFDVYAMGWYRQAPRKERELVAVINTSGTRTYYADSVKGRFTISRDNAKNSVYLLMNSLKPEDTAVSYCNAGGNLEMIYWGQGTQVTVSS”, which “polyreactivity (PSR sort gate)” value is on record?
Answer: The value was “low polyreactivity”.

Question: For “QVQLVESGGGLVQAGGSLRISCASSGRTFWGNAKGRYRQAPGKERELVAGITKSGGTTYADSVKGRFTISRDNAKKTVYLQMNSLKPEDTAVYYCNAVRWQKGDYWGQGTQVTVSS”, which “polyreactivity (PSR sort gate)” value is on record?
Answer: The value was “high polyreactivity”.

Question: For “QVQLVESGGGLVQAGGSLRLSCAASGRTFQYYVMGWYRQAPGKERELVAAITSAGSTNYADSVKGRFTISRDNAKNTVYLQMNSLKPEDTAVYYCNADLWVNLHNDDDYWGQGTQVTVSS”, which “polyreactivity (PSR sort gate)” value is on record?
Answer: Its value is “low polyreactivity”.

Question: For “QVQLVESGGGLVQAGGRLRLICAASGFTFGGNVMGWYRQAPGKERELVAAISSSGGSTYYADSVKGRFTISRDNAKNTVYLQMNSLKPEDTAVYYCAKYAVFYQYRYYHWGQGTQVTVSS”, which “polyreactivity (PSR sort gate)” value is on record?
Answer: Its value is “high polyreactivity”.

Question: Which “polyreactivity (PSR sort gate)” value does the source give for “QVQLVESGGGLVQAGGSLRLSCAASGSIFGYNAMGGYRHAPGKEREFVAAINSGGSTYYADSVKGRFTISRDNAKITVYLQLNSLKPEDTAVYYCRRRNVYSTRRYEYWGQGTQVTVSS” here?
Answer: Its value is “high polyreactivity”.

Question: Which “polyreactivity (PSR sort gate)” value does the source give for “QVQLEESGGGLVQAGGSLRLSCAASGRIFRGNAIAWYRQAPGKERELVASITRGNNTYYADSVKGRFTISRDNAKNTVYLQMNSLKPEDTAVYYCAKRYIYRYYWGQGTQVTVSS” here?
Answer: The value was “high polyreactivity”.

Question: For “QVQLVESGVGLVQAGGSLRLSCAASGRIFYGYAMGWYRQAPGKEREFVARINVSGTSTFYADSVKGRFTISRDNAKNTVYLQMSSLKPEDTAVYDCAARGLPPNDYCYVHGYIMDYWGQGTQVTVSS”, which “polyreactivity (PSR sort gate)” value is on record?
Answer: Its value is “low polyreactivity”.

Question: For “QVQLVESGGGLVQAGGSLRLICAATGSTLVSNAMGWYRKDPGKERELVAAISTSGGSTYYADSVKGRFTISRDNAKNTVYLQMNSLKPEDTAVYYCAAPYAGWGDGGDYWGQGTQVTVSS”, which “polyreactivity (PSR sort gate)” value is on record?
Answer: The value was “low polyreactivity”.

Question: With “QVQLVESGGGLVQAGGSLRLSCAASGRIFDVYAMGWYRQAPGKERELVATISSSGGATYYADSVKGRFTISRDNAKNTVYLQMNSLKPEDTAVYYCATTYRPTFRRHYNYWGQGTQVTVSS” as the sequence, how does the “polyreactivity (PSR sort gate)” value read?
Answer: The value was “low polyreactivity”.

Question: Which “polyreactivity (PSR sort gate)” value does the source give for “QVQLVESGGGLVQAGGSLRLSCAASGRIFKRYAMGWYRQAPGKERELVAAISKSGGSTYYADSVKGRFTISRDNAKNTVYLQMNSLKPEDTAVYYCNADPVRSGLDYWGQGTQVTVSS” here?
Answer: Its value is “high polyreactivity”.

Question: Which “polyreactivity (PSR sort gate)” value does the source give for “QVQHVESGGGLVQAGGSLRLSCAASGTIFEGKGMGWYRQAPGKERELVAAITFRSGSTYYADSVKGRFTISRDNAKNTVYLQMNSLKPEDTAVYYCAADEYYQVSAYDYWGQGTQVTVSS” here?
Answer: The value was “low polyreactivity”.

Question: For “QVQLVESGGGLVQAGGSLRLSCAASGRIFRYNAMGWYRQAPGKERELVAAISTRGGNTYYADSVKGRFTISRDNAKNTVYLQMNSLKPEDTAVYYCNARSSLPYNYWGQGTQVTVSS”, which “polyreactivity (PSR sort gate)” value is on record?
Answer: The value was “high polyreactivity”.

Question: With “QVQLVESGGGLDQAGGSLRLSCAASGSIFSYYAMGWYRQAPGKERELVAAITIRGGRTYYADSVKGRFTISRDNAKNTVYLQMNSLKPEDTAVYYCAADWLNSDPYNYWGQGTQVTVSS” as the sequence, how does the “polyreactivity (PSR sort gate)” value read?
Answer: Its value is “low polyreactivity”.

Question: Which “polyreactivity (PSR sort gate)” value does the source give for “QVLLVESGGGLVQAGGSLRLSCAASGSIFGAYAMGWYRQAPGKVRELVAAINYGGATTYYADSVKGRYTISRDLAKNTVYLQMNSLKPQDTAVYYCAADNDTDHSSATYGYDYWGQGTQVTVSS” here?
Answer: Its value is “low polyreactivity”.

Question: With “QVQLVESGGGLVQAGGSLRLSCAASGNIFESYGMGWYRQAPGKERELVATINTSSGSTYYADSVKGRFTISRDNAKNTVYLQMNSLKPEDTAVYYCAARFDSFWVEYDYWGQGTQVTVSS” as the sequence, how does the “polyreactivity (PSR sort gate)” value read?
Answer: Its value is “low polyreactivity”.

Question: Which “polyreactivity (PSR sort gate)” value does the source give for “QVQLVESGGGLDQAGGRLRLSSAASGYTFRNYAKGLYRQATGQERELVAAITSSTSSTYYADSVKGRFTISRDNAKNTVYLQMNSLKPEDTAVYYCNRVWSPYMDYWGQGTQVTVSS” here?
Answer: Its value is “high polyreactivity”.
